Measurements taken from paper PMC2908215.

Biological target: T1, MLH1 p.Arg659Leu (human), P40692
T1 chain: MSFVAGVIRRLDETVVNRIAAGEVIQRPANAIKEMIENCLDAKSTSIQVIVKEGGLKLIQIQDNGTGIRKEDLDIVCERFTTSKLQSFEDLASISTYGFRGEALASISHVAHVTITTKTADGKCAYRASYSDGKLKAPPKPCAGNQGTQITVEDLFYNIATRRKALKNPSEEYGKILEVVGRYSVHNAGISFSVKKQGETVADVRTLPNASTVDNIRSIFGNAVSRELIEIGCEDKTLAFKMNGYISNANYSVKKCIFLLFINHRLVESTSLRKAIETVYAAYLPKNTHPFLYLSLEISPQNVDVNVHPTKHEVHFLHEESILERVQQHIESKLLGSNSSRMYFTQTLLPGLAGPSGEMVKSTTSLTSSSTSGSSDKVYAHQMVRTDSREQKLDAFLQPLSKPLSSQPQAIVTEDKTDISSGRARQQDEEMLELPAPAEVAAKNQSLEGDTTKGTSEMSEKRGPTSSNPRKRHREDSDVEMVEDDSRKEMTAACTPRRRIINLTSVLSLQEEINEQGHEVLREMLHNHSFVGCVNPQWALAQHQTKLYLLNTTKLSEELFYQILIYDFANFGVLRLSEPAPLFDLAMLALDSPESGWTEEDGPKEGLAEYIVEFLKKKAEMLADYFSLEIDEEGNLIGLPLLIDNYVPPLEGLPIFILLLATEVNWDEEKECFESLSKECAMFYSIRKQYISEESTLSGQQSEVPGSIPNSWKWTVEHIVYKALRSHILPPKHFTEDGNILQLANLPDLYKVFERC
Assay: co-IP
Settings: remark: other sources report otherwise

B1: PMS2, P54278 1-862 (natural protein)
chain: MERAESSSTEPAKAIKPIDRKSVHQICSGQVVLSLSTAVKELVENSLDAGATNIDLKLKDYGVDLIEVSDNGCGVEEENFEGLTLKHHTSKIQEFADLTQVETFGFRGEALSSLCALSDVTISTCHASAKVGTRLMFDHNGKIIQKTPYPRPRGTTVSVQQLFSTLPVRHKEFQRNIKKEYAKMVQVLHAYCIISAGIRVSCTNQLGQGKRQPVVCTGGSPSIKENIGSVFGQKQLQSLIPFVQLPPSDSVCEEYGLSCSDALHNLFYISGFISQCTHGVGRSSTDRQFFFINRRPCDPAKVCRLVNEVYHMYNRHQYPFVVLNISVDSECVDINVTPDKRQILLQEEKLLLAVLKTSLIGMFDSDVNKLNVSQQPLLDVEGNLIKMHAADLEKPMVEKQDQSPSLRTGEEKKDVSISRLREAFSLRHTTENKPHSPKTPEPRRSPLGQKRGMLSSSTSGAISDKGVLRPQKEAVSSSHGPSDPTDRAEVEKDSGHGSTSVDSEGFSIPDTGSHCSSEYAASSPGDRGSQEHVDSQEKAPKTDDSFSDVDCHSNQEDTGCKFRVLPQPTNLATPNTKRFKKEEILSSSDICQKLVNTQDMSASQVDVAVKINKKVVPLDFSMSSLAKRIKQLHHEAQQSEGEQNYRKFRAKICPGENQAAEDELRKEISKTMFAEMEIIGQFNLGFIITKLNEDIFIVDQHATDEKYNFEMLQQHTVLQGQRLIAPQTLNLTAVNEAVLIENLEIFRKNGFDFVIDENAPVTERAKLISLPTSKNWTFGPQDVDELIFMLSDSPGVMCRPSRVKQMFASRACRKSVMIGTALNTSEMKKLITHMGEMDHPWNCPHGRPTMRHIANLGVISQN
For B1, the co-precipitated PMS2 in relation to wild-type (% of wild-type) was 77.
